Measured values taken from the supplement of paper PMC5998384.

What was measured:
[1] = tested on: HeLa Kyoto; test: melting temperature (median over replicates), in situ; higher = more thermally stable
[2] = tested on: HeLa Kyoto; test: solubility change mitosis vs G1/S (difference of NP-40 vs SDS log2 ratios) (log2 ratio difference); higher = more soluble in mitosis
[3] = tested on: HeLa Kyoto; test: solubility in G1/S (NP-40 vs SDS abundance) (log2 ratio); higher = more soluble; settings: cell cycle stage: G1/S
[4] = tested on: HeLa Kyoto; test: thermal stability score vs G1/S (z-score of summed log2 fold changes over temperatures); higher = more thermally stable than in G1/S
[5] = cell cycle stage: early G1 (4.5 h after nocodazole release)
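Wherever melting temperature (median over replicates), in situ is given: HeLa Kyoto cells synchronized by double thymidine or nocodazole block, proteins quantified by TMT10plex mass spectrometry, three independent biological replicates.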
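Wherever solubility change mitosis vs G1/S (difference of NP-40 vs SDS log2 ratios) is given: synchronized HeLa Kyoto cells (double thymidine block for G1/S, nocodazole release for mitosis), protein amounts in NP-40 versus SDS lysates quantified by mass spectrometry, three biological replicates.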
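Wherever solubility in G1/S (NP-40 vs SDS abundance) is given: HeLa Kyoto cells arrested at G1/S by double thymidine block, proteins quantified by TMT10plex mass spectrometry in mild NP-40 versus SDS extracts, three biological replicates.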
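Wherever thermal stability score vs G1/S (z-score of summed log2 fold changes over temperatures) is given: synchronized HeLa Kyoto cells, proteins quantified by TMT10plex mass spectrometry, three biological replicates, mitosis taken 0.5 h after nocodazole release, G1/S directly after double thymidine block.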

Row | Substance | melting temperature ([1]; cell cycle stage: G1/S) [°C] | melting temperature ([1]; cell cycle stage: mitosis) [°C] | solubility change mitosis (log2) [2] | solubility in G1/S (log2) [3] | thermal stability score [4, 5] | thermal stability score ([4]; cell cycle stage: mitosis)
1 | MALLVLGLVSCTFFLAVNGLYSSSDDVIELTPSNFNREVIQSDSLWLVEFYAPWCGHCQRLTPEWKKAATALKDVVKVGAVDADKHHSLGGQYGVQGFPTIKIFGSNKNRPEDYQGGRTGEAIVDAALSALRQLVKDRLGGRSGGYSSGKQGRSDSSSKKDVIELTDDSFDKNVLDSEDVWMVEFYAPWCGHCKNLEPEWAAAASEVKEQTKGKVKLAAVDATVNQVLASRYGIRGFPTIKIFQKGESPVDYDGGRTRSDIVSRALDLFSDNAPPPELLEIINEDIAKRTCEEHQLCVVAVLPHILDTGAAGRNSYLEVLLKLADKYKKKMWGWLWTEAGAQSELETALGIGGFGYPAMAAINARKMKFALLKGSFSEQGINEFLRELSFGRGSTAPVGGGAFPTIVEREPWDGRDGELPVEDDIDLSDVELDDLGKDEL [PDIA6] | 55.1 | 56.2 | -0.1 | 0.44 | 4.84 | 4.76
2 | MSRARSHLRAALFLAAASARGITTQVAARRGLSAWPVPQEPSMEYQDAVRMLNTLQTNAGYLEQVKRQRGDPQTQLEAMELYLARSGLQVEDLDRLNIIHVTGTKGKGSTCAFTECILRSYGLKTGFFSSPHLVQVRERIRINGQPISPELFTKYFWRLYHRLEETKDGSCVSMPPYFRFLTLMAFHVFLQEKVDLAVVEVGIGGAYDCTNIIRKPVVCGVSSLGIDHTSLLGDTVEKIAWQKGGIFKQGVPAFTVLQPEGPLAVLRDRAQQISCPLYLCPMLEALEEGGPPLTLGLEGEHQRSNAALALQLAHCWLQRQDRHGAGEPKASRPGLLWQLPLAPVFQPTSHMRLGLRNTEWPGRTQVLRRGPLTWYLDGAHTASSAQACVRWFRQALQGRERPSGGPEVRVLLFNATGDRDPAALLKLLQPCQFDYAVFCPNLTEVSSTGNADQQNFTVTLDQVLLRCLEHQQHWNHLDEEQASPDLWSAPSPEPGGSASLLLAPHPPHTCSASSLVFSCISHALQWISQGRDPIFQPPSPPKGLLTHPVAHSGASILREAAAIHVLVTGSLHLVGGVLKLLEPALSQ [FPGS] | 49.7 | 48.1 | -0.165 | 0.114 | 0.537 | 1.93
3 | MAAADAEAVPARGEPQQDCCVKTELLGEETPMAADEGSAEKQAGEAHMAADGETNGSCENSDASSHANAAKHTQDSARVNPQDGTNTLTRIAENGVSERDSEAAKQNHVTADDFVQTSVIGSNGYILNKPALQAQPLRTTSTLASSLPGHAAKTLPGGAGKGRTPSAFPQTPAAPPATLGEGSADTEDRKLPAPGADVKVHRARKTMPKSVVGLHAASKDPREVREARDHKEPKEEINKNISDFGRQQLLPPFPSLHQSLPQNQCYMATTKSQTACLPFVLAAAVSRKKKRRMGTYSLVPKKKTKVLKQRTVIEMFKSITHSTVGSKGEKDLGASSLHVNGESLEMDSDEDDSEELEEDDGHGAEQAAAFPTEDSRTSKESMSEADRAQKMDGESEEEQESVDTGEEEEGGDESDLSSESSIKKKFLKRKGKTDSPWIKPARKRRRRSRKKPSGALGSESYKSSAGSAEQTAPGDSTGYMEVSLDSLDLRVKGILSSQAEGLANGPDVLETDGLQEVPLCSCRMETPKSREITTLANNQCMATESVDHELGRCTNSVVKYELMRPSNKAPLLVLCEDHRGRMVKHQCCPGCGYFCTAGNFMECQPESSISHRFHKDCASRVNNASYCPHCGEESSKAKEVTIAKADTTSTVTPVPGQEKGSALEGRADTTTGSAAGPPLSEDDKLQGAASHVPEGFDPTGPAGLGRPTPGLSQGPGKETLESALIALDSEKPKKLRFHPKQLYFSARQGELQKVLLMLVDGIDPNFKMEHQNKRSPLHAAAEAGHVDICHMLVQAGANIDTCSEDQRTPLMEAAENNHLEAVKYLIKAGALVDPKDAEGSTCLHLAAKKGHYEVVQYLLSNGQMDVNCQDDGGWTPMIWATEYKHVDLVKLLLSKGSDINIRDNEENICLHWAAFSGCVDIAEILLAAKCDLHAVNIHGDSPLHIAARENRYDCVVLFLSRDSDVTLKNKEGETPLQCASLNSQVWSALQMSKALQDSAPDRPSPVERIVSRDIARGYERIPIPCVNAVDSEPCPSNYKYVSQNCVTSPMNIDRNITHLQYCVCIDDCSSSNCMCGQLSMRCWYDKDGRLLPEFNMAEPPLIFECNHACSCWRNCRNRVVQNGLRARLQLYRTRDMGWGVRSLQDIPPGTFVCEYVGELISDSEADVREEDSYLFDLDNKDGEVYCIDARFYGNVSRFINHHCEPNLVPVRVFMAHQDLRFPRIAFFSTRLIEAGEQLGFDYGERFWDIKGKLFSCRCGSPKCRHSSAALAQRQASAAQEAQEDGLPDTSSAAAADPL [EHMT1] | 50.2 |  | 0.332 | -0.58 | 1.22 | 2.18
4 | MFLLPLPAAGRVVVRRLAVRRFGSRSLSTADMTKGLVLGIYSKEKEDDVPQFTSAGENFDKLLAGKLRETLNISGPPLKAGKTRTFYGLHQDFPSVVLVGLGKKAAGIDEQENWHEGKENIRAAVAAGCRQIQDLELSSVEVDPCGDAQAAAEGAVLGLYEYDDLKQKKKMAVSAKLYGSGDQEAWQKGVLFASGQNLARQLMETPANEMTPTRFAEIIEKNLKSASSKTEVHIRPKSWIEEQAMGSFLSVAKGSDEPPVFLEIHYKGSPNANEPPLVFVGKGITFDSGGISIKASANMDLMRADMGGAATICSAIVSAAKLNLPINIIGLAPLCENMPSGKANKPGDVVRAKNGKTIQVDNTDAEGRLILADALCYAHTFNPKVILNAATLTGAMDVALGSGATGVFTNSSWLWNKLFEASIETGDRVWRMPLFEHYTRQVVDCQLADVNNIGKYRSAGACTAAAFLKEFVTHPKWAHLDIAGVMTNKDEVPYLRKGMTGRPTRTLIEFLLRFSQDNA [LAP3] | 53.8 | 52.6 | -0.0176 | 0.187 | -5.49 | -3.93
5 | MALLCLDGVFLSSAENDFVHRIQEELDRFLLQKQLSKVLLFPPLSSRLRYLIHRTAENFDLLSSFSVGEGWKRRTVICHQDIRVPSSDGLSGPCRAPASCPSRYHGPRPISNQGAAAVPRGARAGRWYRGRKPDQPLYVPRVLRRQEEWGLTSTSVLKREAPAGRDPEEPGDVGAGDPNSDQGLPVLMTQGTEDLKGPGQRCENEPLLDPVGPEPLGPESQSGKGDMVEMATRFGSTLQLDLEKGKESLLEKRLVAEEEEDEEEVEEDGPSSCSEDDYSELLQEITDNLTKKEIQIEKIHLDTSSFVEELPGEKDLAHVVEIYDFEPALKTEDLLATFSEFQEKGFRIQWVDDTHALGIFPCLASAAEALTREFSVLKIRPLTQGTKQSKLKALQRPKLLRLVKERPQTNATVARRLVARALGLQHKKKERPAVRGPLPP [R3HCC1] |  | 51.1 | -0.0167 | -0.047 | -0.563 | -0.284
6 | KPNA1 | 49 | 49.7 | -0.102 | 0.00375 | 1.89 | 3.16
7 | MGCFFSKRRKADKESRPENEEERPKQYSWDQREKVDPKDYMFSGLKDETVGRLPGTVAGQQFLIQDCENCNIYIFDHSATVTIDDCTNCIIFLGPVKGSVFFRNCRDCKCTLACQQFRVRDCRKLEVFLCCATQPIIESSSNIKFGCFQWYYPELAFQFKDAGLSIFNNTWSNIHDFTPVSGELNWSLLPEDAVVQDYVPIPTTEELKAVRVSTEANRSIVPISRGQRQKSSDESCLVVLFAGDYTIANARKLIDEMVGKGFFLVQTKEVSMKAEDAQRVFREKAPDFLPLLNKGPVIALEFNGDGAVEVCQLIVNEIFNGTKMFVSESKETASGDVDSFYNFADIQMGI [RP2] | 51.6 | 51.1 | -0.158 | -0.343 | -0.738 | -0.982
8 | MRFLAATFLLLALSTAAQAEPVQFKDCGSVDGVIKEVNVSPCPTQPCQLSKGQSYSVNVTFTSNIQSKSSKAVVHGILMGVPVPFPIPEPDGCKSGINCPIQKDKTYSYLNKLPVKSEYPSIKLVVEWQLQDDKNQSLFCWEIPVQIVSHL [NPC2] | 58.9 | 53.4 | 0.0342 | 0.123 | -3.22 | -2.19
9 | MAAQCVTKVALNVSCANLLDKDIGSKSDPLCVLFLNTSGQQWYEVERTERIKNCLNPQFSKTFIIDYYFEVVQKLKFGVYDIDNKTIELSDDDFLGECECTLGQIVSSKKLTRPLVMKTGRPAGKGSITISAEEIKDNRVVLFEMEARKLDNKDLFGKSDPYLEFHKQTSDGNWLMVHRTEVVKNNLNPVWRPFKISLNSLCYGDMDKTIKVECYDYDNDGSHDLIGTFQTTMTKLKEASRSSPVEFECINEKKRQKKKSYKNSGVISVKQCEITVECTFLDYIMGGCQLNFTVGVDFTGSNGDPRSPDSLHYISPNGVNEYLTALWSVGLVIQDYDADKMFPAFGFGAQIPPQWQVSHEFPMNFNPSNPYCNGIQGIVEAYRSCLPQIKLYGPTNFSPIINHVARFAAAATQQQTASQYFVLLIITDGVITDLDETRQAIVNASRLPMSIIIVGVGGADFSAMEFLDGDGGSLRSPLGEVAIRDIVQFVPFRQFQNAPKEALAQCVLAEIPQQVVGYFNTYKLLPPKNPATKQQKQ [CPNE3] | 50.8 | 50.8 | -0.146 | -0.0447 | 1.91 | -0.0585
10 | MAMGDDKSFDDEESVDGNRPSSAASAFKVPAPKTSGNPANSARKPGSAGGPKVGGASKEGGAGAVDEDDFIKAFTDVPSIQIYSSRELEETLNKIREILSDDKHDWDQRANALKKIRSLLVAGAAQYDCFFQHLRLLDGALKLSAKDLRSQVVREACITVAHLSTVLGNKFDHGAEAIVPTLFNLVPNSAKVMATSGCAAIRFIIRHTHVPRLIPLITSNCTSKSVPVRRRSFEFLDLLLQEWQTHSLERHAAVLVETIKKGIHDADAEARVEARKTYMGLRNHFPGEAETLYNSLEPSYQKSLQTYLKSSGSVASLPQSDRSSSSSQESLNRPFSSKWSTANPSTVAGRVSAGSSKASSLPGSLQRSRSDIDVNAAAGAKAHHAAGQSVRSGRLGAGALNAGSYASLEDTSDKLDGTASEDGRVRAKLSAPLAGMGNAKADSRGRSRTKMVSQSQPGSRSGSPGRVLTTTALSTVSSGVQRVLVNSASAQKRSKIPRSQGCSREASPSRLSVARSSRIPRPSVSQGCSREASRESSRDTSPVRSFQPLASRHHSRSTGALYAPEVYGASGPGYGISQSSRLSSSVSAMRVLNTGSDVEEAVADALKKPARRRYESYGMHSDDDANSDASSACSERSYSSRNGSIPTYMRQTEDVAEVLNRCASSNWSERKEGLLGLQNLLKNQRTLSRVELKRLCEIFTRMFADPHGKRVFSMFLETLVDFIQVHKDDLQDWLFVLLTQLLKKMGADLLGSVQAKVQKALDVTRESFPNDLQFNILMRFTVDQTQTPSLKVKVAILKYIETLAKQMDPGDFINSSETRLAVSRVITWTTEPKSSDVRKAAQSVLISLFELNTPEFTMLLGALPKTFQDGATKLLHNHLRNTGNGTQSSMGSPLTRPTPRSPANWSSPLTSPTNTSQNTLSPSAFDYDTENMNSEDIYSSLRGVTEAIQNFSFRSQEDMNEPLKRDSKKDDGDSMCGGPGMSDPRAGGDATDSSQTALDNKASLLHSMPTHSSPRSRDYNPYNYSDSISPFNKSALKEAMFDDDADQFPDDLSLDHSDLVAELLKELSNHNERVEERKIALYELMKLTQEESFSVWDEHFKTILLLLLETLGDKEPTIRALALKVLREILRHQPARFKNYAELTVMKTLEAHKDPHKEVVRSAEEAASVLATSISPEQCIKVLCPIIQTADYPINLAAIKMQTKVIERVSKETLNLLLPEIMPGLIQGYDNSESSVRKACVFCLVAVHAVIGDELKPHLSQLTGSKMKLLNLYIKRAQTGSGGADPTTDVSGQS [CLASP2] | 49.7 | 49.7 | -0.0766 | -0.0972 | 0.157 | 0.371
